Reference: US20160136236A1 (MODERNA THERAPEUTICS, published 2016)

Biological target: T1, BODIPY-labeled LDL (low density lipoprotein) (UniProt P04114 28-4563, BODIPY fluorescent label, site not stated)
T1 construct: A lipoprotein particle (protein and lipid), not a pure protein; also called BODIPY-LDL; LDL-BODIPY
Experiment: FACS; increasing amounts of BODIPY-LDL for 1 h at 37 C on HEK293 cells transfected with LDLR mRNA

B1: wild type (WT) human low density lipoprotein receptor (LDLR) (receptor)
chain: not shown
notes: also called LDL receptor; wild-type LDLR
- Kd: ~0.06 µg/mL
